Assay results: publication PMC7698382

Legend:
[1] = target: Purified human plasmin (human); assay: protease inhibition assay (residual amidolytic activity, tight-binding inhibitor fit); enzyme (plasmin 3 nM; FVIIa/sTF 20 nM; pKLK and FXIa 1 nM each) incubated with inhibitor (10^-1 to 2 x 10^3 nM; up to 3 µM in Figure 3B) for 1 h at room temperature in TBS pH 7.5 (50 mM Tris-HCl, 100 mM NaCl), 0.1 mg BSA/mL, 2 mM Ca2+; synthetic substrate added to 1 KM; Ki corrected for substrate
[2] = target: DIP-δplasmin (active-site blocked δplasmin; recombinant plasmin containing the protease domain and the first kringle domain, treated with DFP); assay: SPR; Biacore T100, 25 °C; DIP-δplasmin or tPA amine-coupled to CM5 chip; analyte KD1-Y11T/L17R-K_(COOH) 100 to 2000 nM in HBS-P (20 mM HEPES pH 7.4, 100 mM NaCl, 0.005% P20), 10 µL/min, 6 min association, 10 min dissociation; regenerated with 20 mM EACA; 1:1 binding model, Kd = kd/ka
[3] = target: Tissue plasminogen activator (Alteplase) (UniProt P00750); assay: as above
[4] = target: Human factor VIIa in complex with soluble tissue factor (sTF, residues 1-219) (UniProt P08709); assay: protease inhibition assay (residual amidolytic activity, tight-binding inhibitor fit); enzyme (plasmin 3 nM; FVIIa/sTF 20 nM; pKLK and FXIa 1 nM each) incubated with inhibitor (10^-1 to 2 x 10^3 nM; up to 3 µM in Figure 3B) for 1 h at room temperature in TBS pH 7.5 (50 mM Tris-HCl, 100 mM NaCl), 0.1 mg BSA/mL, 2 mM Ca2+; synthetic substrate added to 1 KM; Ki corrected for substrate
[5] = target: Plasma kallikrein (UniProt P03952); assay: as above
[6] = target: Purified human factor XIa (human) (UniProt P03951); assay: as above

“KD1-L17R-K_(COOH) (60-residue single mutant of human TFPI-2 Kunitz domain 1 with C-terminal IEK), E. coli expressed (domain or fragment)” showed a Ki [1] of 0.9 nM.
Substance “KD1-Y11T/L17R-K_(COOH) (60-residue double mutant of human TFPI-2 Kunitz domain 1 with C-terminal IEK), E. coli expressed (domain or fragment)” has a Ki [1] of 0.59 nM.
With “KD1-Y11T/L17R-K_(COOH) (60-residue double mutant of human TFPI-2 Kunitz domain 1 with C-terminal IEK), Pichia pastoris expressed (domain or fragment)” the Ki [1] was 0.59 nM.
“KD1-Y11T/L17R-K_(COOH) (60-residue double mutant of human TFPI-2 Kunitz domain 1 with C-terminal IEK), expression host not stated for the experiment (domain or fragment)” showed a Kd [2] of 47.6 nM, a koff [2] of 7.13e-05 s⁻¹ and a kon [2] of 1490 M⁻¹ s⁻¹. The Kd [3] was 35.4 nM, the koff [3] was 0.000105 s⁻¹ and the kon [3] was 2910 M⁻¹ s⁻¹. The Ki [4] was > 3000 nM, the Ki [5] was > 3000 nM and the Ki [6] was > 3000 nM.
With “Wild-type KD1 (Kunitz domain 1 of human tissue factor pathway inhibitor type-2) containing the IIa cleavage site (domain or fragment)” the Ki [1] was 6 nM.
